From the Human Domainome abundance scans (Beltran et al. 2025) come the findings set out here.

± gives the uncertainty stated by the source.

This data set is described as follows: abundance fitness (aPCA) (normalised: wild type 0, dead -1); higher = more abundant; growth selection in yeast, the domain comes from the species named. The settings on record: Homo sapiens.
The substance “E3 ubiquitin-protein ligase NEDD4-like P224Y, Q96PU5” displayed an abundance fitness of -1.18 ± 0.095.

In turn, “E3 ubiquitin-protein ligase NEDD4-like Q185C, Q96PU5” displayed an abundance fitness of -0.793 ± 0.065.

Turning to “E3 ubiquitin-protein ligase NEDD4-like Q185D, Q96PU5”, the abundance fitness is -0.097 ± 0.1.

Regarding “E3 ubiquitin-protein ligase NEDD4-like Q185E, Q96PU5”, the abundance fitness is -0.534 ± 0.097.

In turn, “E3 ubiquitin-protein ligase NEDD4-like Q185F, Q96PU5” yielded an abundance fitness of -0.257 ± 0.12.

Substance “E3 ubiquitin-protein ligase NEDD4-like Q185G, Q96PU5” yielded an abundance fitness of -0.723 ± 0.058.

In turn, “E3 ubiquitin-protein ligase NEDD4-like Q185H, Q96PU5” returned an abundance fitness of -0.034 ± 0.081.

The substance “E3 ubiquitin-protein ligase NEDD4-like Q185I, Q96PU5” returned an abundance fitness of -0.038 ± 0.11.

Substance “E3 ubiquitin-protein ligase NEDD4-like Q185K, Q96PU5” displayed an abundance fitness of -0.398 ± 0.12.

With “E3 ubiquitin-protein ligase NEDD4-like Q185L, Q96PU5”, the abundance fitness is -0.542 ± 0.081.

“E3 ubiquitin-protein ligase NEDD4-like Q185N, Q96PU5” showed an abundance fitness of 0.154 ± 0.12.

In the case of “E3 ubiquitin-protein ligase NEDD4-like Q185P, Q96PU5”, the abundance fitness is -0.539 ± 0.12.

The substance “E3 ubiquitin-protein ligase NEDD4-like Q185R, Q96PU5” came in with an abundance fitness of -0.633 ± 0.068.

Take “E3 ubiquitin-protein ligase NEDD4-like Q185S, Q96PU5”: the abundance fitness was -1.18 ± 0.15.

“E3 ubiquitin-protein ligase NEDD4-like Q185T, Q96PU5” returned an abundance fitness of -0.143 ± 0.1.

“E3 ubiquitin-protein ligase NEDD4-like Q185V, Q96PU5” had an abundance fitness of -0.332 ± 0.075.

Regarding “E3 ubiquitin-protein ligase NEDD4-like Q185Y, Q96PU5”, the abundance fitness amounted to 0.011 ± 0.11.

Substance “E3 ubiquitin-protein ligase NEDD4-like Q187A, Q96PU5” showed an abundance fitness of -0.256 ± 0.058.

In turn, “E3 ubiquitin-protein ligase NEDD4-like Q187D, Q96PU5” displayed an abundance fitness of -0.167 ± 0.097.

“E3 ubiquitin-protein ligase NEDD4-like Q187E, Q96PU5” showed an abundance fitness of -0.767 ± 0.079.

For the substance “E3 ubiquitin-protein ligase NEDD4-like Q187F, Q96PU5”, the abundance fitness was 0.041 ± 0.07.

“E3 ubiquitin-protein ligase NEDD4-like Q187G, Q96PU5” registered an abundance fitness of -0.799 ± 0.07.

“E3 ubiquitin-protein ligase NEDD4-like Q187I, Q96PU5” gave an abundance fitness of -0.247 ± 0.11.

In turn, “E3 ubiquitin-protein ligase NEDD4-like Q187K, Q96PU5” yielded an abundance fitness of 0.243 ± 0.087.

Substance “E3 ubiquitin-protein ligase NEDD4-like Q187L, Q96PU5” registered an abundance fitness of -0.287 ± 0.071.

“E3 ubiquitin-protein ligase NEDD4-like Q187M, Q96PU5”: the abundance fitness was -0.069 ± 0.092.

Substance “E3 ubiquitin-protein ligase NEDD4-like Q187N, Q96PU5” gave an abundance fitness of -0.001 ± 0.072.

On to “E3 ubiquitin-protein ligase NEDD4-like Q187R, Q96PU5”, for which the abundance fitness was -0.298 ± 0.066.

Consider “E3 ubiquitin-protein ligase NEDD4-like Q187S, Q96PU5”, for which the abundance fitness is -0.242 ± 0.073.

For the substance “E3 ubiquitin-protein ligase NEDD4-like Q187T, Q96PU5”, the abundance fitness amounted to 0.016 ± 0.09.

In the case of “E3 ubiquitin-protein ligase NEDD4-like Q187V, Q96PU5”, the abundance fitness is -0.233 ± 0.06.

“E3 ubiquitin-protein ligase NEDD4-like Q187W, Q96PU5” showed an abundance fitness of -0.907 ± 0.073.

Take “E3 ubiquitin-protein ligase NEDD4-like Q187Y, Q96PU5”: the abundance fitness is 0.031 ± 0.1.

Substance “E3 ubiquitin-protein ligase NEDD4-like Q220A, Q96PU5” gave an abundance fitness of -0.096 ± 0.057.

As to “E3 ubiquitin-protein ligase NEDD4-like Q220C, Q96PU5”, the abundance fitness was -0.06 ± 0.071.

In the case of “E3 ubiquitin-protein ligase NEDD4-like Q220D, Q96PU5”, the abundance fitness is -0.258 ± 0.088.

Take “E3 ubiquitin-protein ligase NEDD4-like Q220E, Q96PU5”: the abundance fitness was -0.555 ± 0.084.

“E3 ubiquitin-protein ligase NEDD4-like Q220F, Q96PU5” returned an abundance fitness of -0.618 ± 0.12.

For the substance “E3 ubiquitin-protein ligase NEDD4-like Q220G, Q96PU5”, the abundance fitness was -0.548 ± 0.071.

“E3 ubiquitin-protein ligase NEDD4-like Q220H, Q96PU5” displayed an abundance fitness of -0.775 ± 0.17.

For “E3 ubiquitin-protein ligase NEDD4-like Q220I, Q96PU5”, the abundance fitness is -0.371 ± 0.12.

“E3 ubiquitin-protein ligase NEDD4-like Q220K, Q96PU5”: the abundance fitness is -0.757 ± 0.12.

The substance “E3 ubiquitin-protein ligase NEDD4-like Q220M, Q96PU5” gave an abundance fitness of -0.362 ± 0.093.

In the case of “E3 ubiquitin-protein ligase NEDD4-like Q220N, Q96PU5”, the abundance fitness was -0.354 ± 0.071.

“E3 ubiquitin-protein ligase NEDD4-like Q220P, Q96PU5” showed an abundance fitness of -0.9 ± 0.078.

The substance “E3 ubiquitin-protein ligase NEDD4-like Q220R, Q96PU5” had an abundance fitness of -0.557 ± 0.072.

As to “E3 ubiquitin-protein ligase NEDD4-like Q220S, Q96PU5”, the abundance fitness amounted to 0.184 ± 0.065.

Regarding “E3 ubiquitin-protein ligase NEDD4-like Q220T, Q96PU5”, the abundance fitness came to 0.163 ± 0.077.

Take “E3 ubiquitin-protein ligase NEDD4-like Q220V, Q96PU5”: the abundance fitness is -0.242 ± 0.06.

“E3 ubiquitin-protein ligase NEDD4-like Q220Y, Q96PU5” showed an abundance fitness of -0.692 ± 0.096.

“E3 ubiquitin-protein ligase NEDD4-like R208A, Q96PU5” yielded an abundance fitness of 0.036 ± 0.062.

“E3 ubiquitin-protein ligase NEDD4-like R208C, Q96PU5” yielded an abundance fitness of 0.06 ± 0.062.

“E3 ubiquitin-protein ligase NEDD4-like R208D, Q96PU5” had an abundance fitness of 0.067 ± 0.098.

The substance “E3 ubiquitin-protein ligase NEDD4-like R208E, Q96PU5” registered an abundance fitness of 0.047 ± 0.083.

In turn, “E3 ubiquitin-protein ligase NEDD4-like R208F, Q96PU5” showed an abundance fitness of -0.289 ± 0.06.

For “E3 ubiquitin-protein ligase NEDD4-like R208G, Q96PU5”, the abundance fitness is -0.191 ± 0.06.

“E3 ubiquitin-protein ligase NEDD4-like R208I, Q96PU5”: the abundance fitness is -0.504 ± 0.12.

“E3 ubiquitin-protein ligase NEDD4-like R208K, Q96PU5” registered an abundance fitness of -0.028 ± 0.079.

With “E3 ubiquitin-protein ligase NEDD4-like R208L, Q96PU5”, the abundance fitness was -0.128 ± 0.069.

As for “E3 ubiquitin-protein ligase NEDD4-like R208M, Q96PU5”, the abundance fitness was -0.062 ± 0.078.

The substance “E3 ubiquitin-protein ligase NEDD4-like R208N, Q96PU5” came in with an abundance fitness of 0.225 ± 0.11.

In turn, “E3 ubiquitin-protein ligase NEDD4-like R208P, Q96PU5” returned an abundance fitness of -0.908 ± 0.099.

As to “E3 ubiquitin-protein ligase NEDD4-like R208Q, Q96PU5”, the abundance fitness came out at 0.215 ± 0.09.

In turn, “E3 ubiquitin-protein ligase NEDD4-like R208T, Q96PU5” showed an abundance fitness of -0.005 ± 0.08.

With “E3 ubiquitin-protein ligase NEDD4-like R208W, Q96PU5”, the abundance fitness is -0.408 ± 0.083.

On to “E3 ubiquitin-protein ligase NEDD4-like R208Y, Q96PU5”, for which the abundance fitness was -0.23 ± 0.11.

Substance “E3 ubiquitin-protein ligase NEDD4-like R217A, Q96PU5” gave an abundance fitness of 0 ± 0.064.

The substance “E3 ubiquitin-protein ligase NEDD4-like R217C, Q96PU5” gave an abundance fitness of -0.105 ± 0.081.

“E3 ubiquitin-protein ligase NEDD4-like R217D, Q96PU5” yielded an abundance fitness of -0.042 ± 0.078.

In the case of “E3 ubiquitin-protein ligase NEDD4-like R217E, Q96PU5”, the abundance fitness is -0.153 ± 0.085.

Take “E3 ubiquitin-protein ligase NEDD4-like R217F, Q96PU5”: the abundance fitness was -0.011 ± 0.088.

“E3 ubiquitin-protein ligase NEDD4-like R217G, Q96PU5” showed an abundance fitness of -0.005 ± 0.054.

“E3 ubiquitin-protein ligase NEDD4-like R217H, Q96PU5” gave an abundance fitness of -1 ± 0.062.

“E3 ubiquitin-protein ligase NEDD4-like R217I, Q96PU5” registered an abundance fitness of -0.267 ± 0.084.

“E3 ubiquitin-protein ligase NEDD4-like R217K, Q96PU5” returned an abundance fitness of 0.087 ± 0.091.

“E3 ubiquitin-protein ligase NEDD4-like R217L, Q96PU5” registered an abundance fitness of -0.208 ± 0.06.

“E3 ubiquitin-protein ligase NEDD4-like R217M, Q96PU5” registered an abundance fitness of -0.239 ± 0.07.

“E3 ubiquitin-protein ligase NEDD4-like R217N, Q96PU5”: the abundance fitness stood at 0.051 ± 0.089.

On to “E3 ubiquitin-protein ligase NEDD4-like R217P, Q96PU5”, for which the abundance fitness was -0.267 ± 0.085.

“E3 ubiquitin-protein ligase NEDD4-like R217Q, Q96PU5” gave an abundance fitness of -0.016 ± 0.067.

On to “E3 ubiquitin-protein ligase NEDD4-like R217T, Q96PU5”, for which the abundance fitness is -0.069 ± 0.081.

“E3 ubiquitin-protein ligase NEDD4-like R217Y, Q96PU5”: the abundance fitness was -0.179 ± 0.084.

“E3 ubiquitin-protein ligase NEDD4-like R223A, Q96PU5” showed an abundance fitness of -0.175 ± 0.066.

Substance “E3 ubiquitin-protein ligase NEDD4-like R223C, Q96PU5” came in with an abundance fitness of -0.552 ± 0.09.
